Source: US20060257938A1, “Method of screening for drugs that block ligand binding to a lipid binding protein” (priority 2005, published 2006)
Changes are numbered by the printed parent chain. “And” between values parts separate entries of the source, which are not always exact repeats. Equal values may be shown once.

B1: 60R, 72A (protein, listed as Rattus norvegicus)
chain: AFDGTWKVDRNENYEKFMEKMGINVVKRKLGAHDNLKLTITQEGNKFTVKESSNFRNIDRVFELGVDFAYSAADGTELTGTWTMEGNKLVGKFKRVDNGKELIAVREISGNELIQTYTYEGVEAKRIFKKE
modifications: PEPTIDE (1)...(131) wild-type rat intestinal fatty acid binding protein
B2: 62I, 72A (protein, listed as Rattus norvegicus)
chain: B1 chain with R60V, F62I
modifications: PEPTIDE (1)...(131) wild-type rat intestinal fatty acid binding protein
B3: 62A, 72A (protein, listed as Rattus norvegicus)
chain: B1 chain with R60V, F62A
modifications: PEPTIDE (1)...(131) wild-type rat intestinal fatty acid binding protein
B4: 62N, 72A (protein, listed as Rattus norvegicus)
chain: B1 chain with R60V, F62N
modifications: PEPTIDE (1)...(131) wild-type rat intestinal fatty acid binding protein
B5: 62C, 72A (protein, listed as Rattus norvegicus)
chain: B1 chain with R60V, F62C
modifications: PEPTIDE (1)...(131) wild-type rat intestinal fatty acid binding protein
B6: 60T, 72A (protein, listed as Rattus norvegicus)
chain: B1 chain with R60T
modifications: PEPTIDE (1)...(131) wild-type rat intestinal fatty acid binding protein
B7: 68C, 72A (protein, listed as Rattus norvegicus)
chain: B1 chain with R60V, F68C
modifications: PEPTIDE (1)...(131) wild-type rat intestinal fatty acid binding protein
B8: 62H, 72A (protein, listed as Rattus norvegicus)
chain: B1 chain with R60V, F62H
modifications: PEPTIDE (1)...(131) wild-type rat intestinal fatty acid binding protein
B9: 60W, 72A (protein, listed as Rattus norvegicus)
chain: B1 chain with R60W
modifications: PEPTIDE (1)...(131) wild-type rat intestinal fatty acid binding protein
B10: 60S, 72A (protein, listed as Rattus norvegicus)
chain: B1 chain with R60S
modifications: PEPTIDE (1)...(131) wild-type rat intestinal fatty acid binding protein
B11: 62D, 72A (protein, listed as Rattus norvegicus)
chain: B1 chain with R60V, F62D
modifications: PEPTIDE (1)...(131) wild-type rat intestinal fatty acid binding protein
B12: 62G, 72A (protein, listed as Rattus norvegicus)
chain: B1 chain with R60V, F62G
modifications: PEPTIDE (1)...(131) wild-type rat intestinal fatty acid binding protein
B13: 62E, 72A (protein, listed as Rattus norvegicus)
chain: B1 chain with R60V, F62E
modifications: PEPTIDE (1)...(131) wild-type rat intestinal fatty acid binding protein
B14: 62T, 72A (protein, listed as Rattus norvegicus)
chain: B1 chain with R60V, F62T
modifications: PEPTIDE (1)...(131) wild-type rat intestinal fatty acid binding protein
B15: 68A, 72A (protein, listed as Rattus norvegicus)
chain: B1 chain with R60V, F68A
modifications: PEPTIDE (1)...(131) wild-type rat intestinal fatty acid binding protein

Assay: Probe fluorescence ratio response to oleic acid relative to ADIFAB2
Assay type: binding
Settings: response relative to ADIFAB2
Procedure, shortened: (§1)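 Each fatty acid's response was expressed relative to ADIFAB2, the rI-FABP-L72A probe, as ΔR/ΔRreference. ΔR is the change in the background-corrected two-wavelength intensity ratio R=Fλ1/Fλ2 from its analyte-free baseline R0. Emission was read near about 420-480 nm for unbound and about 495-580 nm for FFA-bound probe.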

Going from B1 to B2, the “DR/DR OA” value rises from 0.13 to 1.37.

First: B3
Second: B4
The “DR/DR OA” value of the first is lower: 0.86 for the first, 1.37 for the second.

Going from B5 to B6, the “DR/DR OA” value rises from 1.29 to 1.76.

Going from B7 to B8, the “DR/DR OA” value rises from 0.29 to 1.40.

Going from B10 to B12, the “DR/DR OA” value rises from 0.67 to 1.46.

First: B13
Second: B14
The “DR/DR OA” value of the first is higher: 1.52 for the first, 1.00 for the second.

With B15 the “DR/DR OA” value was 0.19.

In the case of B9, the “DR/DR OA” value is reported as 0.76 and 0.763.
With B11 the “DR/DR OA” value was 1.57 and 1.574.

Assay: Probe fluorescence ratio response to arachidonic acid relative to ADIFAB2
Assay type: binding
Settings: Arachidonic acid; response relative to ADIFAB2
Procedure, shortened: as §1

Compared with B1, B2 is higher in “DR/DR AA” value: 0.14 for the first, 1.40 for the second.

First: B3
Second: B4
The “DR/DR AA” value of the first is lower: 1.08 for the first, 1.40 for the second.

First: B5
Second: B6
The “DR/DR AA” value of the first is lower: 1.30 for the first, 1.72 for the second.

Going from B7 to B8, the “DR/DR AA” value rises from 0.18 to 1.42.

First: B9
Second: B10
The “DR/DR AA” value of the first is higher: 0.67 for the first, 0.56 for the second.

First: B11
Second: B12
The “DR/DR AA” value of the first is higher: 1.49 for the first, 1.43 for the second.

Going from B13 to B14, the “DR/DR AA” value falls from 1.48 to 0.99.

In the case of B15, the “DR/DR AA” value is reported as 0.23.

Same assay, conditions: arachidonic acid; response relative to ADIFAB2

Compared with B9, B11 is higher in “DR/DR AA” value: 0.670 for the first, 1.485 for the second.

Assay: Probe fluorescence ratio response to linolenic acid relative to ADIFAB2
Assay type: binding
Settings: response relative to ADIFAB2
Procedure, shortened: as §1

Going from B1 to B2, the “DR/DR LNA” value rises from 0.14 to 1.38.

Going from B3 to B4, the “DR/DR LNA” value rises from 1.08 to 1.40.

Going from B5 to B6, the “DR/DR LNA” value rises from 1.31 to 1.73.

First: B7
Second: B8
The “DR/DR LNA” value of the first is lower: 0.25 for the first, 1.44 for the second.

First: B10
Second: B12
The “DR/DR LNA” value of the first is lower: 0.71 for the first, 1.44 for the second.

First: B13
Second: B14
The “DR/DR LNA” value of the first is higher: 1.52 for the first, 0.96 for the second.

With B15 the “DR/DR LNA” value was 0.19.

With B9 the “DR/DR LNA” value was 0.74 and 0.739.
In the case of B11, the “DR/DR LNA” value is reported as 1.58 and 1.576.

Assay: Probe fluorescence ratio response to linoleic acid relative to ADIFAB2
Assay type: binding
Settings: response relative to ADIFAB2
Procedure, shortened: as §1

Going from B1 to B2, the “DR/DR LA” value rises from 0.12 to 1.36.

Going from B3 to B4, the “DR/DR LA” value rises from 0.96 to 1.34.

Compared with B5, B6 is higher in “DR/DR LA” value: 1.31 for the first, 1.73 for the second.

Compared with B7, B8 is higher in “DR/DR LA” value: 0.12 for the first, 1.40 for the second.

First: B10
Second: B12
The “DR/DR LA” value of the first is lower: 0.72 for the first, 1.44 for the second.

First: B13
Second: B14
The “DR/DR LA” value of the first is higher: 1.49 for the first, 1.02 for the second.

For B15, the “DR/DR LA” value was 0.18.

For B9, the “DR/DR LA” value was 0.84 and 0.837.
In the case of B11, the “DR/DR LA” value is reported as 1.60 and 1.598.

Assay: Probe fluorescence ratio response to palmitic acid relative to ADIFAB2
Assay type: binding
Settings: response relative to ADIFAB2
Procedure, shortened: as §1

Compared with B1, B2 is higher in “DR/DR PA” value: 0.08 for the first, 1.27 for the second.

Compared with B3, B4 is higher in “DR/DR PA” value: 0.57 for the first, 1.29 for the second.

First: B5
Second: B6
The “DR/DR PA” value of the first is lower: 1.18 for the first, 1.49 for the second.

Compared with B7, B8 is higher in “DR/DR PA” value: 0.13 for the first, 1.24 for the second.

Going from B10 to B12, the “DR/DR PA” value rises from 0.59 to 1.26.

Going from B13 to B14, the “DR/DR PA” value falls from 1.40 to 0.65.

For B15, the “DR/DR PA” value was 0.13.

In the case of B9, the “DR/DR PA” value is reported as 0.59 and 0.595.
In the case of B11, the “DR/DR PA” value is reported as 1.39 and 1.385.
